These results are taken from paper PMC13128273, “The interferon-stimulated gene product HERC5 inhibits human LINE-1 retrotransposition with an ISGylation-independent mechanism” (Nucleic Acids Research, 2026).

For this test, the target named is L1.3 ORF2p-3×FLAG (human, UniProt O00370 1-1275). The test can be described thus: co-IP; ORF2p-3×FLAG precipitated with anti-FLAG from lysate of HEK293T cells transfected with pTMF3 together with pCMV-3Tag-9, HERC5 or MOV10 vector; ORF1p-T7 detected by anti-T7 blot, band intensities given as ORF1p/ORF2p ratio relative to the control; pTMH3 as negative control. To be noted: partners not purified.
Sequence of L1.3 ORF2p-3×FLAG (O00370 whole entry): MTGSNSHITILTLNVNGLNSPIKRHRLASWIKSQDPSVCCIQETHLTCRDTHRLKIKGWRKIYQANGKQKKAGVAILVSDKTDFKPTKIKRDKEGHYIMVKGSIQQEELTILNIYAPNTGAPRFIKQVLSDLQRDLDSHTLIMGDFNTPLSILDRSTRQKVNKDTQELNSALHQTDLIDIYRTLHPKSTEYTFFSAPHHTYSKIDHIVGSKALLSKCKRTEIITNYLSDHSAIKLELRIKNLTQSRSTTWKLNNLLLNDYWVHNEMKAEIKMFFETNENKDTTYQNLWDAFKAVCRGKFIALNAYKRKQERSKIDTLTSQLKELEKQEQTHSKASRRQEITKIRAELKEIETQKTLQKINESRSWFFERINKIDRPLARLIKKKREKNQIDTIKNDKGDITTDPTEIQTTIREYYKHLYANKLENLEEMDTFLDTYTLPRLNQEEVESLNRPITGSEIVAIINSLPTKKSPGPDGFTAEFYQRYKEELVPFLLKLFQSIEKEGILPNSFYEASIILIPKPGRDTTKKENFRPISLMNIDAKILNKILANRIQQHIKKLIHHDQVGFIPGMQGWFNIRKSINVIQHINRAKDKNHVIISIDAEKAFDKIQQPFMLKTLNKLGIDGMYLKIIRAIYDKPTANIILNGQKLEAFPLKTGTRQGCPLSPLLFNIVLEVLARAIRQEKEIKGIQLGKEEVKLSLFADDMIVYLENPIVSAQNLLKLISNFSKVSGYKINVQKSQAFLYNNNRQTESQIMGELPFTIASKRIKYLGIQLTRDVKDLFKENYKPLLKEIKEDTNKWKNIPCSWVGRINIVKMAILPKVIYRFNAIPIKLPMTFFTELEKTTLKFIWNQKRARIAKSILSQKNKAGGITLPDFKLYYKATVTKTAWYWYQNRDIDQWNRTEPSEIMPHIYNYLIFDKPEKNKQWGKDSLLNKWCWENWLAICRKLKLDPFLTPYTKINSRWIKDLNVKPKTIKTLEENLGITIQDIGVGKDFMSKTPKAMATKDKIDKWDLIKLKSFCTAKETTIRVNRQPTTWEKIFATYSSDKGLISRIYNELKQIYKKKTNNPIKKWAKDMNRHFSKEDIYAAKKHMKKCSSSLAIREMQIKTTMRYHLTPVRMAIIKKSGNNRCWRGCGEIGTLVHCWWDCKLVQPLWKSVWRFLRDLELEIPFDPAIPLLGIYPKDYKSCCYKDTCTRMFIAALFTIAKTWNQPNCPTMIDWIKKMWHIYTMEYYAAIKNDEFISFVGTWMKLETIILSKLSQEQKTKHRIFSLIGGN

B1: L1.3 ORF1p-T7 (natural protein)
chain: MGKKQNRKTGNSKTQSASPPPKERSSSPATEQSWMENDFDELREEGFRRSNYSELREDIQTKGKEVENFEKNLEECITRITNTEKCLKELMELKTKARELREECRSLRSRCDQLEERVSAMEDEMNEMKREGKFREKRIKRNEQSLQEIWDYVKRPNLRLIGVPESDVENGTKLENTLQDIIQENFPNLARQANVQIQEIQRTPQRYSSRRATPRHIIVRFTKVEMKEKMLRAAREKGRVTLKGKPIRLTADLSAETLQARREWGPIFNILKEKNFQPRISYPAKLSFISEGEIKYFIDKQMLRDFVTTRPALKELLKEALNMERNNRYQPLQNHAKM
notes: ORF1p of the human LINE-1 element L1.3, expressed from the full-length L1.3 in pTMF3 or pTMH3; residues counted from the first methionine of L1.3 ORF1p; From pTMH3 in the HERC5-3×FLAG IP and from pTMF3 in the ORF2p-3×FLAG IP; source: HEK293T, transfected, in lysate
In the case of B1, the “decrease of the ORF1p/ORF2p ratio in the ORF2p-3×FLAG IP with HERC5 overexpression, against the empty vector” value is ~60%.
